A short description of this data set: yeast display, Sf9 membrane polyspecificity reagent, FACS + sequencing; frameworks hold sequencing errors. The method in brief: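 Synthetic nanobody libraries on Saccharomyces cerevisiae BJ5465 were galactose-induced for 36–48 hours, stained 1 hour at 4 °C with 10% biotinylated, detergent-solubilized Sf9 membrane reagent and enriched on streptavidin microbeads. FACS then separated cells into low and high (top ~1%) gates by anti-HA (expression) and streptavidin (reagent binding) fluorescence. Genes were colony-PCR amplified, MiSeq 2 × 250 sequenced and CDR-length filtered. A clone's polyreactivity label is that of its gate of origin.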
Turning to “QVQLVESGGGLVQAGGSLRLSCAASGLIFRFYAMGWYRQAPGKERELVAAISGGGGSTYYADSVKGRFTISRDNAKNTVYFQMNSLKPEDTAVYYCNTVNDKRAYGKMGYWGQGTQVTVSS”, the “polyreactivity (PSR sort gate)” value is “high polyreactivity”.

Regarding “QVHLVESGGGLVQAGGSLRLSCAASGSTFGYYDMGWYRQAPGKERELVATISSGGGTNYADSVKGRFTISRDNAKNTVYLQMNSLKPEDTAVYYCAVTYGSKKARYSIYPRYGYWGQGTQVTVSS”, the “polyreactivity (PSR sort gate)” value is given as “low polyreactivity”.

For “QVQLVESGGGLVQAGGSLRLSCAASGSIFYYYAMGWYRQAPGKERELVAGITVSGGRTYYADSVKGRFTISRDNAKNTVYLQMNSLKPEDTAVYYCAADGRAKYDYWGQGTQVTVSS”, the “polyreactivity (PSR sort gate)” value is given as “low polyreactivity”.

Consider “QVQLVESGGGLVQAGGSLRLSCAASGLTFSYYAMGWYRPAPGKERELVAAITSSGGNTYYADSVKGRFTISRDNEKNTVYLQMNSLKPEETAVYYCNARRYLRGYGYGYWGQGTQVTVSS”, for which the “polyreactivity (PSR sort gate)” value was “high polyreactivity”.

In the case of “QVQLVESGGGLVQAGGSLRLSCAASGSILGPYAMGWYRQAPGKERELVAGISGSGTRTYYADSVKGRFTISRDNAKNTVYLQMNSLKPEDPAVYYCAARYYSSWIRYPTYDYWGQGTQVTVSS”, the “polyreactivity (PSR sort gate)” value is “high polyreactivity”.

On to “QVQLVESGGALVQAGGSLRLSCAASGSTFRYYAMGWYRQAPGKERELVAAIRWSGDSTYYADSVKGRFTISRDNAKNTVYLQMNSLKPEDTAVYYCAADRQRSHRVGTKGHRVGYWGQGTQVSVSS”, for which the “polyreactivity (PSR sort gate)” value is “high polyreactivity”.

Take “QVQLVDSGGRLVQAGGRLRLTCAASGFILSYNMGWYRQAPGKERELVATISYNDVSTYYADSVKGRFTISRDNAKNTVYLQMNSLKPEDTAVDYCNAQFPIITRRGYDYWGQGTQVNVSS”: the “polyreactivity (PSR sort gate)” value was “high polyreactivity”.

For “QVQLVESGGGLVQAGGSLRISCAASGSIFYQYAMGWYRQAPGKERELVAGITWSGGSTYYADSVKGRFTISRDNAKNTVYLQMNSLKPEDSAVYYCARRYRGGYFWGQGTQVTVSS”, the “polyreactivity (PSR sort gate)” value is “high polyreactivity”.

Regarding “QVQLVESGGGLVQAGGSLRLSCAASGSTFGPNAMGWYRQAPGKERELVAAITDSGVSTYYAVSVKGRFTISRDNAKYTVYLQMNSLKPEDTAVYYCATDWYLHRFDYWGQGTQVTVSS”, the “polyreactivity (PSR sort gate)” value is “low polyreactivity”.

Take “QVQLVESGGGLVQAGGSLRLSCAASGFTFSRYAMGWYRQAPGKERELVAAISYSGGRTYYADSVKGRFTISRDNAKNTVYLQMNSLKPEDTAVYYCNATWQSGHGWGQGTQVTVSS”: the “polyreactivity (PSR sort gate)” value is given as “high polyreactivity”.

For “QVQLVESGGGLVQAGGSLRLSCAASGRTFSYYAMGWYRQAPGKERELVAAISRSGVTTHYADSVKGRFTISRDNAKNTVYLQMNSLKTEDTAVYYCNKVYYYVGTLDYWGQGTQVTVSS”, the “polyreactivity (PSR sort gate)” value is on record as “high polyreactivity”.

As to “QVQLVESGGGLVQAGGSLRLSCAASGRTFRDYVMGWYRQAPGKERELVAVISYRGSTYYADSVKGRFTISRDNAKNTVYLLMNSLKPEDTAVYYCAARFSLEGGYYWGQGTQVTVSS”, the “polyreactivity (PSR sort gate)” value is on record as “low polyreactivity”.

On to “QVQLVESGGGLVQAGGSLRLSCAASGSIIPYYVMGWYRQAPGKERELVAAITSGGSTYYADSVKGRFTISRDNAKNTVYLQMNSLKPEDTAVYYCAVRWYPLYAPYWRDYWGQGTQVTVSS”, for which the “polyreactivity (PSR sort gate)” value is “high polyreactivity”.

For “QVQLVESGGGLVQAGGSLRFSCAASGFTFYLYTMGWYRQAPGKDRELVAAINYSGGTTYYADSVKGRFTISRDNAKNTVYLQMNSLKPEDTAVYYCAATVGYSYNPRKNYYWGQGTQVTVSS”, the “polyreactivity (PSR sort gate)” value is listed as “low polyreactivity”.

On to “QVQLVESGGGLVQAGGSLRLSCAASGSTFGYNAMGWYRQAPGKERELVAGIRSSGGSTYYADSVKGRFTISRDNAKNTVYLQMNSLKTEDTAVSYCNTRRRRNEKMYYWGQGTQVTVSS”, for which the “polyreactivity (PSR sort gate)” value is reported as “high polyreactivity”.

Consider “QVQLVESGGGLVQAGGSLRLSCAASGITFPYYAMGWYRQAPGKERELVAAITTGGGSTYYADSVKGRFTISRDNAKNTVYLQMNSLKPEDTAVYYCAAANLRARTGPRRGYEYWGQGTQVTVSS”, for which the “polyreactivity (PSR sort gate)” value is “high polyreactivity”.

Consider “QVQLVESGAGLVQAGGSLRLTCAASGFIFGYNARGWYRPAPGKERELVAAIRYRGVSTYYADSVKGRFTISRDNAKNTFYLQMNSLKPVETAVYYCNARTRVKTTQSYDRNYYYWGQGTQVTVSS”, for which the “polyreactivity (PSR sort gate)” value is listed as “high polyreactivity”.

For “QVQLVESGGGLVQAGGSLRLSCAASGRIFQYNAMGWYRQSPGKERELVAAIRRGGGSTYYADSVKGRFTISRDNAKNTVYLQMNSLKPEDTAVYYCAARRKRVSFYPEYDYWGQGTQVTVSS”, the “polyreactivity (PSR sort gate)” value is “low polyreactivity”.

Take “QVQLVESGGGLVQAGGSLRLSCAASGFTIWPYAMGWYRQAPGKERELVAGITRNGGSTYYADSVKGRFTISRDIAKNTVYLQMNSLKPEDTAVYYCNTKYAVEFDYWGQGTQVTVSS”: the “polyreactivity (PSR sort gate)” value is listed as “low polyreactivity”.

With “QVQLVESGGGLVQAGGSLRLSCAASGRIFGVNAMGWYRQAPGKERELVAAIRYRDGSTYYADSVKGRFIISRDNAKNTVYLQMNSLKPEDTAVYYCNALHQRFYAQPGDYWGQGTQVTVSS”, the “polyreactivity (PSR sort gate)” value was “high polyreactivity”.

In the case of “HVQLVESGGGLVQAGGSLRLICAASGRSFSPYAMGWYRLAPGKERELVAAITNGDSTNYADSVKGRFTISRDNAKNTVYLLMNSLKPEDTAVYYCNAAAEISSFDYDYWGQGTQVTVSS”, the “polyreactivity (PSR sort gate)” value is listed as “low polyreactivity”.

Turning to “QVQLVESGGGLVQAGGSLRLSCAASGFTLGPYMGWYRQAPGKERELVAAISGGGGRTYYADSVKGRFTISRDNAKNTVYLQMNSLKPEDTSVYYCAAAYRSYKQFYSYGYEYWGQGTQVTVSS”, the “polyreactivity (PSR sort gate)” value is given as “high polyreactivity”.

Turning to “QVQLVESGGGLVQAGGSLRLSCAASGITLYRYVMGWYRQAPGKERELVADISGRGTSTYYADSVKGRFTISRDNAKNTVYLQMNSLKPEDTAVYYSNSEYTKTGALVIPYTYYYAEDYWGQGTQVTVSS”, the “polyreactivity (PSR sort gate)” value is “low polyreactivity”.

Turning to “QFQLVESGGGLVQAGGSLRLSCAASGSTLAPYVMGWYRQAPGKDRELVAVISTRTGRPYYADSVKGRFTISRDNAKNTVYLQMNSLKPEDTGVYYCAARKKTTYRDWGRHDYWGQGTQVTVSS”, the “polyreactivity (PSR sort gate)” value was “high polyreactivity”.

“QVQLVESGGGLVQAGGRLRLSCAASGRIFPVNAMGWYRQAPGKERELVAGITWSGDGSTYYADSVKGRFTISRDNAKNTVYLQMNSLKPEDTAVYYCAARLNLQGRYDYSGQGTQVTVSS”: the “polyreactivity (PSR sort gate)” value is reported as “low polyreactivity”.

As to “QVQLVESGGGLVQAGGSLRLSCAASGFIFVRYARGWNRQAPGKERELVASITRSGGSTYYADSVKGRFTISRDNAKNTVYLQMNSLKPEDTAVYYCAASYYRSRGSTYGYWGQGTQVTVSS”, the “polyreactivity (PSR sort gate)” value is “high polyreactivity”.

Take “QVQLVESGGGLVQAGGSLRLSCAASGSIFPVYAMGWYRQAPGKERELVAAINSSGGTTYYADSVKGRFSNSRDNAKNTVYLQMNSLKPEDTAVYYCAAEICTSSYLAKTYDYWGQGTQVTVSS”: the “polyreactivity (PSR sort gate)” value is recorded as “low polyreactivity”.

With “QVQLVESGGGLVQAGGSLRLSCAASGITFYGNAMGWYRQAPGKERELVAAINWGGTGTYYADSVKGRFTISRDNAKNTVYLQMNSLKPEDTAVYYCAAEVYTWGQGTQVTVSS”, the “polyreactivity (PSR sort gate)” value was “low polyreactivity”.

Consider “QVQLVESGGGLVQAGGSLRLSSAASGRISQNAIGWYRQAPGKERELVAAITFSGGSTYYADSVKGRFTISRDNAKNTVFLQMNSLKPEDTAVYYCAAEDRPLYWRFPDEMDYWGQGTQVTVSS”, for which the “polyreactivity (PSR sort gate)” value is listed as “low polyreactivity”.

For “QVQLVESGRGLVPAGGSLRLSCAASGSTFFKNAMGWYRQAPGNERELVAAITWSGDRTYADSVKGRFTISRDNAKNTVYLQMNSLKPEDTAVYYCNVDITGYEDDEWGQGTQVTVSS”, the “polyreactivity (PSR sort gate)” value is listed as “low polyreactivity”.

As for “QVQIEESGGGLVQAGGSLRLSCAASGFTFTYNDMGWNRQAPGKETEFVAAISSTGGSTYYADSVKGRFTISRDNAKNTVYLQMNSLKPEDTAVYYCAAEDSWYWDAWFDYWGQGTQVTVSS”, the “polyreactivity (PSR sort gate)” value is “low polyreactivity”.

On to “QVQLVESGGGLVQAGGSLRLSCAASGFIFDKNAMGWYRQAPGKERELVAAISSGGGSTDYADAVKGRFTISRDNAKNPDYLHMNSLKPEDTAVYYCARYWDQLQQYVISFGRYGMDYWGQGTQVTVSS”, for which the “polyreactivity (PSR sort gate)” value is “high polyreactivity”.

For “QVHLVESGGGLVQAGGSLRLSCAASGYIFKVNAMGWYRQATRKERELVAAISSDGGSTYADSVKGRFTISRDNAKNTVYLEFYSLKTEDTAVYYCNVDLESERDPPKYVYWGQGTQVTVSS”, the “polyreactivity (PSR sort gate)” value was “low polyreactivity”.

With “QDQLVESGGGLVQAGGSLRLSCPASGHTFAKYAMGWYRQAPGKERELVAAISSGGDTYYADSVKGRFTISRDNAKNTVYLQMNSLIPEDTAVYYCAATSICGSWSFWSPGEYRHYDYWGQGTQVTVSS”, the “polyreactivity (PSR sort gate)” value is reported as “low polyreactivity”.

In the case of “QVQLVESGGGLVQAGGSLRLSCAASGRIFVYNAMGWYRQAPGKERELVATITSGGSTYYADSVKGRFTISRDNAKNTVYLQMNSLKPEDTAVYYCAARRWYVHYFAYGYWGQRTQVTVSS”, the “polyreactivity (PSR sort gate)” value is on record as “low polyreactivity”.

As to “QVQLVESGGGLVQAGGSLRLSCAASGFILTSYAMGWYRQAPGKERELVAAISSRGGRTYYADSVKGRFTISRDNAKNTVYLQMNSLKPEDTAVYFCNAVVYVVGDFDYWGQGTQVTVSS”, the “polyreactivity (PSR sort gate)” value is on record as “high polyreactivity”.

Turning to “QVQLVESGGGLVQAGGSLRLSCAASGSILGLYAMRWYRQATGKERELVASIPSSGSTYYAVSVKGRFTISRDYAKNTVYLQMYSLKPEDTAVYYCAAVGSYYYYIRYDYWGQGTQVTVSS”, the “polyreactivity (PSR sort gate)” value is “low polyreactivity”.

For “QVQLVESGGGLVQARGSLRLSCAASGRTFGGYARGWYRQAPGKERELVATISKRAGSTYYADSVKGRFTISRDHAKNTVYLQMNSLKPEDTAVYYCAKVKSARYQEYEYWGQGTQVTVSS”, the “polyreactivity (PSR sort gate)” value was “high polyreactivity”.

In the case of “QVQLVESGGGLVQAGGSLRLSCAASGSIFGRNAMGWYRQAPGKERELVAAINYSGTSTYYADSVKGRFTISRDNAKNTVYLQMNSLKPEDTAVYYCAKARHKSPTYTHDSWGQGTQVTVSS”, the “polyreactivity (PSR sort gate)” value is recorded as “high polyreactivity”.

In the case of “QVQLVESGGGLVQAGGSLRLSCAASGFIFGINAMGWYRQAPWKERELVAAISTGDRTNYADSVKGRFTISRDNAKNTVYLQMNSLKPEDTAVYYCAKDWRRNRPYEWTYDYWGQGTQVTVSS”, the “polyreactivity (PSR sort gate)” value is listed as “low polyreactivity”.

For “QVQLVESGGGLVQAGGSLRLSCAASGLTLAWYAMGWYRQAPGKERELVAAISWSGDSTYYADSVKGRFTISRDNAKNTVYLQMNSLKPEDTAVYYCATRVYGGYGYWGQGTQVTVSS”, the “polyreactivity (PSR sort gate)” value is on record as “high polyreactivity”.
